Among the data in the supplement of paper PMC10126150 are switch fluorescence ratio values, retold here.

± gives the standard deviation of the averaged measurements.

This data set has as its system ATP. Nature of the data set: switch fluorescence ratio, 500 uM ATP over buffer (Cy3 cluster intensity, sum of 5 cycles each) (fold (ratio)); higher = stronger signal-on switching upon ATP binding; sequences stand for … in TCGTCGGCAGCGTCAGATGTGTATAAGAGACAGTTTTTTTTTTTTTTTTTTTTTTTTT…TC. The note with it: aptamer strand: ATP DNA aptamer (quencher-CACCTGGGGGAGTATTGCGGAGGAAGG + anchor), 100 nM annealed; ATP concentration: 500 uM. In outline:
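Five buffer/ATP imaging cycles were run on Cy3-labelled switching-strand clusters on a modified Illumina MiSeq flow-cell, with NaOH stripping and re-annealing between cycles. In each cycle, clusters annealed to 100 nM quencher-labelled ATP aptamer were imaged in selection buffer, then after 15 min with 500 uM ATP at 22 °C. Per cluster, the fluorescence ratio is summed target-cycle over summed buffer-cycle Cy3 intensity, averaged per switch-domain sequence. Only clusters within 100-1000 RFU were kept.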
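Further: ATP exposure 15 min at 22 °C before imaging.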

AAAAAAATGT: the switch fluorescence ratio turned out to be 1.054 ± 0.01. For the sequence AAAAAAGAGA, the switch fluorescence ratio was 0.977 ± 0.046. In the case of AAAAAAGGGA it was 0.995 ± 0.022; in that of AAAAAAGTAG, 1.03 ± 0.012.

Take AAAAAAGTTA: the switch fluorescence ratio was determined as 1 ± 0.064. For the sequence AAAAAATCGT, the switch fluorescence ratio was 1.02 ± 0.057. Take AAAAAATGGA: the switch fluorescence ratio came to 1.01 ± 0.031. For the sequence AAAAAATTAA, the switch fluorescence ratio stood at 1.04 ± 0.026.

Turning to AAAAAATTTA, the switch fluorescence ratio was determined as 0.996 ± 0.043. In the case of AAAAACAAAA it was 1.04 ± 0.065; in that of AAAAACATTT, 0.998 ± 0.051; in that of AAAAACGCTG, 1.039 ± 0.0093. In the case of AAAAAGGGGA, the switch fluorescence ratio turned out to be 1 ± 0.032. As to AAAAAGGGGG, the switch fluorescence ratio is 1.02 ± 0.045.

For AAAAAGTATG, the switch fluorescence ratio was found to be 1 ± 0.026. For the sequence AAAAAGTCGG, the switch fluorescence ratio was found to be 1.04 ± 0.029. In the case of AAAAAGTCTT it was 1 ± 0.015; in that of AAAAAGTTGG, 1.005 ± 0.0099; in that of AAAAAGTTGT, 1 ± 0.028. AAAAATGTAT: the switch fluorescence ratio came to 0.975 ± 0.019. For AAAAATTTTA, the switch fluorescence ratio amounted to 0.993 ± 0.026. Regarding AAAAATTTTG, the switch fluorescence ratio was determined as 1.04 ± 0.056. With AAAACAAAAT, the switch fluorescence ratio is 1.05 ± 0.026. In the case of AAAACAGTAA it was 1.02 ± 0.032; in that of AAAACGACCC, 1.11 ± 0.07; in that of AAAACGATAT, 1.046 ± 0.0062. Consider AAAACGGTTG, for which the switch fluorescence ratio is 1 ± 0.019.

On to AAAACGTATA, for which the switch fluorescence ratio was found to be 1.07 ± 0.039.

On to AAAACTCTGT, for which the switch fluorescence ratio worked out at 1.04 ± 0.015.

On to AAAACTTATG, for which the switch fluorescence ratio amounted to 1.026 ± 0.0033. With AAAACTTTTG, the switch fluorescence ratio is 1.02 ± 0.038.

As for AAAACTTTTT, the switch fluorescence ratio was determined as 1.04 ± 0.051. Regarding AAAAGAAAGG, the switch fluorescence ratio is 0.985 ± 0.012.

For AAAAGACGTT, the switch fluorescence ratio was determined as 1 ± 0.029. In the case of AAAAGAGCCC it was 1.0191 ± 0.0008; in that of AAAAGAGGGA, 0.999 ± 0.043; in that of AAAAGATGGG, 1.02 ± 0.0016. In the case of AAAAGCTTTA, the switch fluorescence ratio worked out at 0.983 ± 0.018. In the case of AAAAGGAAAG it was 0.957 ± 0.037; in that of AAAAGGAACT, 1.04 ± 0.044; in that of AAAAGGAAGT, 1.01 ± 0.016. On to AAAAGGACTT, for which the switch fluorescence ratio worked out at 0.994 ± 0.002. Take AAAAGGCTAA: the switch fluorescence ratio was 1 ± 0.0037. For the sequence AAAAGGGCAG, the switch fluorescence ratio came out at 0.986 ± 0.031.

AAAAGGGGTT: the switch fluorescence ratio was found to be 1.02 ± 0.043. As to AAAAGGGTCG, the switch fluorescence ratio was found to be 1.05 ± 0.087. As for AAAAGGGTTG, the switch fluorescence ratio turned out to be 0.99 ± 0.033. Regarding AAAAGTAAAG, the switch fluorescence ratio amounted to 0.987 ± 0.033. AAAAGTACGA: the switch fluorescence ratio was 1.07 ± 0.011. In the case of AAAAGTACGC it was 1.09 ± 0.11; in that of AAAAGTGGGA, 1.03 ± 0.031.

For AAAAGTTACA, the switch fluorescence ratio was determined as 1.027 ± 0.0092.

On to AAAAGTTGGG, for which the switch fluorescence ratio amounted to 1.01 ± 0.014. As to AAAAGTTTTG, the switch fluorescence ratio is 1.01 ± 0.011. In the case of AAAATAAGAG it was 1.009 ± 0.0037; in that of AAAATACAGA, 1.08 ± 0.17; in that of AAAATAGATT, 1.032 ± 0.0078.

Consider AAAATATTTA, for which the switch fluorescence ratio amounted to 1.02 ± 0.012. In the case of AAAATATTTG it was 0.964 ± 0.011; in that of AAAATCGACC, 1.08 ± 0.011.

Regarding AAAATGCCAC, the switch fluorescence ratio worked out at 1.04 ± 0.024. AAAATGCGAG: the switch fluorescence ratio turned out to be 1 ± 0.0062. As for AAAATGGGGG, the switch fluorescence ratio is 1 ± 0.03.

Consider AAAATTAGGA, for which the switch fluorescence ratio was 1.02 ± 0.069. For the sequence AAAATTAGGT, the switch fluorescence ratio worked out at 0.9779 ± 0.0093. Turning to AAAATTATTG, the switch fluorescence ratio was 1 ± 0.022. For AAAATTCAGT, the switch fluorescence ratio is 0.9893 ± 0.0089. With AAAATTTAGC, the switch fluorescence ratio came out at 0.964 ± 0.054. In the case of AAAATTTTGT, the switch fluorescence ratio amounted to 1 ± 0.021. AAACAAGCTT: the switch fluorescence ratio amounted to 1.02 ± 0.021. As for AAACAAGTTG, the switch fluorescence ratio came to 1.02 ± 0.035. In the case of AAACACCGGG, the switch fluorescence ratio was 1.11 ± 0.031.

As for AAACACGGTG, the switch fluorescence ratio is 1.19 ± 0.17.

Regarding AAACAGGAGT, the switch fluorescence ratio is 1.008 ± 0.0037. As to AAACAGGGAG, the switch fluorescence ratio is 0.974 ± 0.075. As for AAACAGGGTA, the switch fluorescence ratio is 0.9906 ± 0.0079. AAACAGTTAT: the switch fluorescence ratio worked out at 1.03 ± 0.042.

Take AAACATTATT: the switch fluorescence ratio is 1 ± 0.063. For AAACCATCCG, the switch fluorescence ratio was determined as 1.63 ± 0.064. In the case of AAACCCGATA, the switch fluorescence ratio amounted to 1.05 ± 0.025.

Take AAACCGGGGT: the switch fluorescence ratio worked out at 1.66 ± 0.94. Turning to AAACGCCATT, the switch fluorescence ratio turned out to be 1.13 ± 0.018. Turning to AAACGCTGCG, the switch fluorescence ratio came out at 1.02 ± 0.035. For the sequence AAACGGGTCA, the switch fluorescence ratio was 0.983 ± 0.03. In the case of AAACGGTGTG, the switch fluorescence ratio was 1.03 ± 0.037.

As for AAACGTAACG, the switch fluorescence ratio is 1.07 ± 0.029. With AAACGTATGT, the switch fluorescence ratio is 0.9984 ± 0.0079.

Consider AAACGTTGCT, for which the switch fluorescence ratio is 1.19 ± 0.015. Consider AAACTACTCT, for which the switch fluorescence ratio came out at 1.03 ± 0.02. In the case of AAACTAGAAG, the switch fluorescence ratio is 1.01 ± 0.019.

For the sequence AAACTGGATG, the switch fluorescence ratio stood at 0.9783 ± 0.0039. With AAACTTCGCT, the switch fluorescence ratio worked out at 1.27 ± 0.25. Consider AAACTTGTAA, for which the switch fluorescence ratio was determined as 1.01 ± 0.027.

AAACTTTTTC: the switch fluorescence ratio is 1.02 ± 0.065. For the sequence AAAGAAAAAA, the switch fluorescence ratio came to 1.012 ± 0.0025. Consider AAAGAAAGGA, for which the switch fluorescence ratio is 0.977 ± 0.032.

AAAGAGAGAC: the switch fluorescence ratio was found to be 1.0086 ± 0.00021. Regarding AAAGAGCTAG, the switch fluorescence ratio is 1 ± 0.053. With AAAGAGGCGG, the switch fluorescence ratio came out at 1.006 ± 0.0013.

Turning to AAAGAGGGGA, the switch fluorescence ratio turned out to be 1.03 ± 0.016. For the sequence AAAGAGGGTG, the switch fluorescence ratio amounted to 1.1 ± 0.058. Take AAAGAGGTAG: the switch fluorescence ratio came out at 0.9983 ± 0.0024. AAAGAGGTTT: the switch fluorescence ratio was 0.985 ± 0.034. Take AAAGAGTGCG: the switch fluorescence ratio amounted to 1 ± 0.042. In the case of AAAGATAGAT, the switch fluorescence ratio is 1.002 ± 0.0027.

Regarding AAAGATCGTT, the switch fluorescence ratio came to 0.9799 ± 0.0055.

For AAAGATTTTG, the switch fluorescence ratio turned out to be 0.982 ± 0.031. AAAGCAGGGG: the switch fluorescence ratio was found to be 1.06 ± 0.037. For AAAGCCGGTT, the switch fluorescence ratio was found to be 0.9689 ± 0.004. Turning to AAAGCCTGGG, the switch fluorescence ratio came out at 0.966 ± 0.027. As to AAAGCGGATG, the switch fluorescence ratio turned out to be 0.986 ± 0.077.

Consider AAAGCGTATA, for which the switch fluorescence ratio is 0.987 ± 0.052.

On to AAAGCTGGGG, for which the switch fluorescence ratio was found to be 0.981 ± 0.048.

For the sequence AAAGCTGGGT, the switch fluorescence ratio was found to be 1 ± 0.026. In the case of AAAGGAAAGG, the switch fluorescence ratio turned out to be 0.992 ± 0.014. On to AAAGGAAGGG, for which the switch fluorescence ratio came out at 0.989 ± 0.033. In the case of AAAGGAATTT, the switch fluorescence ratio was found to be 1.12 ± 0.19.

Take AAAGGAGATT: the switch fluorescence ratio came out at 0.996 ± 0.028. In the case of AAAGGAGTA it was 1.01 ± 0.037; in that of AAAGGATACG, 1.01 ± 0.034.
